Experiment [1] concerns the target recombinant human PD-1 protein (residues 21-167) (human) (UniProt Q15116). Description: ELISA; blocking: plates coated with 0.5 ug/mL PD-1 (21-167); antibody from 3 ug/mL, 1.5-fold dilutions, 37 °C 120 min; then 1 ug/mL PD-L1-mFc, detected with HRP-anti-mouse Fc. (In an ELISA, binding on a coated surface is turned into a signal by an enzyme label.)
Experiment [2] concerns the target T1, human PD-1 extracellular domain (residues 21-167) (Homo sapiens, UniProt Q15116, N-linked glycans seen at N49, N58 and N116 (N58: two N-acetylglucosamines, one fucose and two mannoses; N49 and N116: one N-acetylglucosamine modelled); N74 ambiguous).
T1 construct: Construct used for the complex with MW11-h317 Fab and its crystal structure; also called hPD-1; Programmed cell death protein 1; source: CHO cells, electrotransfected; purified from supernatant by a nivolumab-coupled resin
Description: crystal structure; PD-1 (21-167) and MW11-h317 Fab mixed 1:2, complex purified on Superdex 200; crystals at 16 °C in 0.1 M Bis-Tris pH 6.5, 28% PEG monomethyl ether 2000; 2.9 Å; two complexes per asymmetric unit. The settings on record: both partners purified.

Chain of recombinant human PD-1 protein (residues 21-167) (human) (Q15116 21-167): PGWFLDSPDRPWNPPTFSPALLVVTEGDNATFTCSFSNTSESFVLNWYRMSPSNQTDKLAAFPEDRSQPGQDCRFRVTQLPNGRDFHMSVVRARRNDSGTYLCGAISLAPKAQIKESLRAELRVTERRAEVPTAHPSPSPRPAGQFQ
T1 sequence (Q15116 21-167): as above

B1: MW11-h317 (humanized anti-PD-1 monoclonal antibody) (antibody, V domains shown)
VH: EVQLVESGGGLVKPGGSLRLSCAASGFTFSSYDMSWVRQAPGKGLEWVATISGGGSYTYYPDSVKGRFTISRDNAKNSLYLQMNSLRAEDTAVYYCASPDSSGVAYWGQGTLVTVSS
VL: DIVMTQSPLSLPVTPGEPASITCKASQDVETVVAWYLQKPGQSPRLLIYWASTRHTGVPDRFSGSGSGTDFTLKISRVEAEDVGVYYCQQYSRYPWTFGQGTKLEIK
In the case of B1, the IC50 (usually the concentration that gives 50% inhibition) in experiment [1] was determined as 1.4 nM.

B2: MW11-h317 Fab (Fab, V domains shown)
VH: B1 VH
VL: B1 VL
notes: heavy chain of the Fab in the structure deposited here (PDB 6JJP); light chain of the Fab in the structure deposited here (PDB 6JJP); The methods speak of plasmids encoding VL and VH; also called MW11-h317 Fab fragment; source: HEK 293, co-transfected with two plasmids; purified from supernatant (Protein G, HiTrap Capto S)
Take B2: the stoichiometry N (as a rule, a count of units in the complex or per binding partner) in experiment [2] stood at 1.

The values above are taken from PMC6814707 (Communications Biology, 2019).
